The target of this assay is rat EMILIN1 C-terminus fusion protein in pRSET-A (REM) (rat). Nature of the assay: SPR. (In general: Surface plasmon resonance follows binding to a sensor surface in real time, without labels.)

What is called Kd is the concentration at which binding is half-saturated. Higher therefore signals weaker binding.

With “rat organ of Corti CNGA3 C-terminus fusion protein in pRSET-A (RA3-C) (domain or fragment)”, the Kd came to 270 nM.

The values above are taken from article PMC6363478.
